Data on one molecule can be found in PMC8423587 (Nature chemical biology, 2019).

Usually stoichiometry N stands for a count of units in the complex or per binding partner.

In this experiment the target is T1, ELIC 7′C pore mutant (L238C in the cysteine-free background C300S/C313S) (Erwinia (as in the name Erwinia …)).
T1 chain: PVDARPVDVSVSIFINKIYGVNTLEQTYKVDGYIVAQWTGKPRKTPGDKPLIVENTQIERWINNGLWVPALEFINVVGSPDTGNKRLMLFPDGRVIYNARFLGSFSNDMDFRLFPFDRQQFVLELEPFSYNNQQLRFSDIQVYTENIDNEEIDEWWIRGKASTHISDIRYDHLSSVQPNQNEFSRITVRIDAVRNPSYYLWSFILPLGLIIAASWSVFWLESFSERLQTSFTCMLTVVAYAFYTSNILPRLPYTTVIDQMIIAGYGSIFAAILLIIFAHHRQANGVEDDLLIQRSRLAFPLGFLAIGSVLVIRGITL
In words: crystal structure.

B1: nanobody 72 (VHH)
VHH: QVQLQESGGGLVQAGGSLRLSCAASGRIFSTNVMGWFRQAPGKEREFVATVGRIGGSTVYADFVKGRFTLSRDNAKNMVYLQMNSLKPEDTAVYYCGARIGGSDRLAPENYGYWGQGTQVTVSS
Regarding B1, the “stoichiometry N” value turned out to be 5 Nb72 per ELIC pentamer.
